Consider 1 molecule from patent US20220323583A1 (MacroGenics, published 2022).

The target of assay [1] is T1, Human CD123-His (human, UniProt P26951 19-305, limits assumed).
T1 construct: Only the label 'Human CD123-His' is printed; also called interleukin 3 receptor alpha; IL-3Ra; not shown: His tag
T1 sequence (looked up): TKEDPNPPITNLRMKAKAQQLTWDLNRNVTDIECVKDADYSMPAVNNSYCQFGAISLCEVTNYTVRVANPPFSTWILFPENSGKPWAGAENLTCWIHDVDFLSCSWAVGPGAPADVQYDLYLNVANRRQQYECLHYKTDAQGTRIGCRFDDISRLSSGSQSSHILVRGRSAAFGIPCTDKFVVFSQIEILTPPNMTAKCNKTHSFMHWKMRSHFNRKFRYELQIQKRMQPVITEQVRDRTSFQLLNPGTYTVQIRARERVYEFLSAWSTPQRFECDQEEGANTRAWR
Put plainly: kinetic binding measurement, method not stated.

The target of assay [2] is T2, Cynomolgus CD123-His (cynomolgus monkey).
T2 construct: Only the label 'Cynomolgus CD123-His' is printed; also called cynomolgus monkey CD123
Put plainly: kinetic binding measurement, method not stated.

The target of assay [3] is human CD123 on target cell lines (Kasumi-3, Molm13, THP-1, TF-1, RS4-11) (human, UniProt P26951 19-378). In words: cell-based or functional assay.

B1: DART-A, sequence-optimized CD123×CD3 bispecific diabody (bispecific antibody)
chain 1: QAVVTQEPSLTVSPGGTVTLTCRSSTGAVTTSNYANWVQQKPGQAPRGLIGGTNKRAPWTPARFSGSLLGGKAALTITGAQAEDEADYYCALWYSNLWVFGGGTKLTVLGGGGSGGGGEVQLVQSGAELKKPGASVKVSCKASGYTFTDYYMKWVRQAPGQGLEWIGDIIPSNGATFYNQKFKGRVTITVDKSTSTAYMELSSLRSEDTAVYYCARSHLLRASWFAYWGQGTLVTVSSGGCGGGEVAALEKEVAALEKEVAALEKEVAALEK
chain 2: DFVMTQSPDSLAVSLGERVTMSCKSSQSLLNSGNQKNYLTWYQQKPGQPPKLLIYWASTRESGVPDRFSGSGSGTDFTLTISSLQAEDVAVYYCQNDYSYPYTFGQGTKLEIKGGGSGGGGEVQLVESGGGLVQPGGSLRLSCAASGFTFSTYAMNWVRQAPGKGLEWVGRIRSKYNNYATYYADSVKDRFTISRDDSKNSLYLQMNSLKTEDTAVYYCVRHGNFGNSYVSWFAYWGQGTLVTVSSGGCGGGKVAALKEKVAALKEKVAALKEKVAALKE
notes: Two chains covalently bonded by a disulfide bond, no Fc; a second species lacks the C-terminal lysine; also called CD123×CD3 diabody; CD123 × CD3 Bi-Specific Diabodies
In the case of B1, in assay [1], the Kd (usually the equilibrium constant for the complex coming apart) was 130 pM, the off-rate constant (koff) (usually the rate constant with which the complex falls apart) came to 0.00019 s⁻¹ and the kon (usually a measure of how fast the partners come together) amounted to 1.6e+06 M⁻¹ s⁻¹. In assay [2], this molecule had a Kd of 270 pM, a koff of 0.0004 s⁻¹ and an association rate constant (kon) of 1.5e+06 M⁻¹ s⁻¹. For the same molecule, in assay [3], the “EC50 of redirected killing, E:T = 10:1, Kasumi-3 target cells” value amounted to 0.01 ng/mL; the “EC50 of redirected killing, E:T = 10:1, Molm13 target cells” value came out at 0.18 ng/mL; the “EC50 of redirected killing, E:T = 10:1, RS4-11 target cells” value was 0.5 ng/mL; the “EC50 of redirected killing, E:T = 10:1, TF-1 target cells” value was 0.46 ng/mL. Besides, in assay [3], the “EC50 of redirected killing, E:T = 10:1, THP-1 target cells” value was 0.24 ng/mL.
